The supplement of paper PMC10126150
± gives the standard deviation of the averaged measurements.

test system: ATP; assay: switch fluorescence ratio, 500 uM ATP over buffer (Cy3 cluster intensity, sum of 5 cycles each) (fold (ratio)); higher = stronger signal-on switching upon ATP binding; sequences stand for … in TCGTCGGCAGCGTCAGATGTGTATAAGAGACAGTTTTTTTTTTTTTTTTTTTTTTTTT…TC; details: aptamer strand: ATP DNA aptamer (quencher-CACCTGGGGGAGTATTGCGGAGGAAGG + anchor), 100 nM annealed; ATP concentration: 500 uM
In short: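 Five buffer/ATP imaging cycles were run on Cy3-labelled switching-strand clusters on a modified Illumina MiSeq flow-cell, with NaOH stripping and re-annealing between cycles. In each cycle, clusters annealed to 100 nM quencher-labelled ATP aptamer were imaged in selection buffer, then after 15 min with 500 uM ATP at 22 °C. Per cluster, the fluorescence ratio is summed target-cycle over summed buffer-cycle Cy3 intensity, averaged per switch-domain sequence. Only clusters within 100-1000 RFU were kept.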
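Also: ATP exposure 15 min at 22 °C before imaging.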

Sequence | switch fluorescence ratio
ATTCTTTCTT | 1.002 ± 0.0018
TATAACGCTT | 1.01 ± 0.017
TAGTAGGGGT | 1.002 ± 0.0061
ACAATCGTTT | 1.01 ± 0.014
TCGGTTTGTT | 1 ± 0.0029
ATGACTTTGG | 0.977 ± 0.028
CGGTGGGGAC | 1.04 ± 0.13
TGTTGGCTTT | 1.06 ± 0.022
AGACAAAAAT | 1.026 ± 0.0065
GTTTTAACTT | 0.999 ± 0.054
GATGAAGTTG | 0.971 ± 0.029
CAACATCACG | 1.52 ± 0.057
TTCTGCAGGT | 0.995 ± 0.011
AAGACGGGGT | 1.01 ± 0.049
GTTGGTGTTG | 0.998 ± 0.032
TTTGGGCAAG | 1.06 ± 0.043
AAGGGCCCTA | 0.9939 ± 0.0018
CATAGATTTT | 0.98896 ± 0.00042
AGAGTTTGAA | 1.02 ± 0.024
CAAACCAACG | 1.345 ± 0.0044
GACTGTCGG | 1.002 ± 0.0068
ATTGTTTTGA | 0.9818 ± 0.0088
TCACCAGGTA | 2.163 ± 0.021

Sequence | switch fluorescence ratio
GCGCGATGGA | 1.03 ± 0.019
GGGAGTTCGG | 0.9597 ± 0.0092
CTCATTTGAC | 1.032 ± 0.0056
AAAACCGAAA | 1.11 ± 0.1
GGAAGTTCTA | 0.984 ± 0.016
CGTTGTTAGC | 0.992 ± 0.022
GGGGGTTCAT | 0.979 ± 0.013
AATTCGGCTT | 0.978 ± 0.0088
AAAACCGTGT | 1.05 ± 0.04
ACTTAAAATT | 0.996 ± 0.044
TTCTGGCGCG | 0.984 ± 0.015
TGGTATGTCA | 0.9913 ± 0.0059
CAGTTATGGC | 0.999 ± 0.026
GTGGATACTA | 1.009 ± 0.0047
CGGAGGAGTA | 1.03 ± 0.03
TATAATTTCT | 1.04 ± 0.018
CTCGTCTGAG | 1 ± 0.023
AGCGGTCGGC | 1.04 ± 0.018
CCCTGTCGGC | 0.997 ± 0.037
GCAGGAAGAG | 1.0184 ± 0.00041
GATCATGTTT | 0.98194 ± 0.00037
TTGGAGGAAA | 1.09 ± 0.13
AAAAGGTTTG | 1.022 ± 0.0081

Sequence | switch fluorescence ratio
CGTGGTGGG | 0.968 ± 0.029
GCATGGCTGC | 1.03 ± 0.036
GAATAAAGTT | 0.986 ± 0.046
TTTTTTGTCT | 0.993 ± 0.021
TGGTTGTTT | 0.9856 ± 0.0018
GGCAGGAGGG | 1.11 ± 0.22
AGACTGGGTT | 0.971 ± 0.012
GATCCAAGGG | 1.01 ± 0.021
GTTTGTAGTG | 1.01 ± 0.026
GATGTCTGGG | 0.959 ± 0.027
ATGATACAGG | 1.08 ± 0.039
AGCGGGTTAA | 1.017 ± 0.0096
TTGGGGAGAT | 0.989 ± 0.014
CCGGGGTTGG | 1 ± 0.012
GAGGCTGGGT | 0.988 ± 0.0081
AACGTTCATG | 1.02 ± 0.044
GCTCAAGCTA | 1.15 ± 0.021
GATACGATGG | 0.983 ± 0.027
TACCTGCCGG | 1.08 ± 0.026
ACCCCGGGCA | 1.08 ± 0.018
GTCGGGTACA | 1.008 ± 0.0085
AACGGACGGG | 1.27 ± 0.095
CTGGTTCAGG | 1.026 ± 0.0082

Sequence | switch fluorescence ratio
GAAGGCATTC | 1.06 ± 0.031
CGTTTCAGCG | 0.952 ± 0.051
GGGGGCGGTC | 0.997 ± 0.023
CCTCACTAGT | 1.0949 ± 8.2e-05
CGCCCGCACG | 1.93 ± 0.5
TTATATGAGG | 0.962 ± 0.045
GCTAACCGGG | 1 ± 0.0097
ACTAGTGTCA | 1 ± 0.04
TGGGTTGATT | 1.01 ± 0.031
ACGACCTGCA | 1.51 ± 0.075
ACAGCGCCGG | 1.018 ± 0.002
GACTGGTAAT | 1.047 ± 0.0072
ATACGCTGGT | 0.9993 ± 0.0042
GGGTATAGGA | 0.944 ± 0.033
TTTTGGATCT | 0.982 ± 0.023
AAGTCGCGGA | 0.999 ± 0.033
GTAATTGCTG | 1.01 ± 0.059
GATTGGCGAG | 0.998 ± 0.011
TGGTGTATGC | 1.03 ± 0.059
CGTTTTGGGC | 1.04 ± 0.033
AGTTTTGAAG | 0.9906 ± 0.0096
AAACGAAATT | 1.03 ± 0.068
ATCGCATATG | 1.08 ± 0.053

Sequence | switch fluorescence ratio
AAACGGTATT | 1.09 ± 0.083
GGAAGGAATG | 0.966 ± 0.0076
TTTTACGTAG | 1.09 ± 0.035
CATTTGTGGG | 0.993 ± 0.017
AAAAATTTAG | 0.994 ± 0.034
TTTTTTGAGT | 1 ± 0.023
TGGGCAGGCA | 1 ± 0.028
TATAAGGATG | 0.993 ± 0.019
CTAAATCGGT | 0.987 ± 0.061
GTTCTTGTAA | 1.017 ± 0.0088
TGCACACGTG | 0.9787 ± 0.0068
TCGAGTCGTG | 0.9922 ± 0.0054
AGTTTTTTAT | 1 ± 0.022
TATTTTACCA | 1.017 ± 0.0061
GGTTATGGAG | 0.964 ± 0.046
CAGGTTTTTG | 0.983 ± 0.028
GTTAGAGTCA | 1.01 ± 0.013
TCGAAGAGTT | 0.994 ± 0.033
CGGGCCGGGG | 1.02 ± 0.033
TCAGGAGTCG | 1.02 ± 0.06
TGGTCTATGC | 1.05 ± 0.012
CGATTCGAGG | 1.03 ± 0.011
TTACGGTGAC | 1.17 ± 0.059

Sequence | switch fluorescence ratio
TTGTTGGGGT | 1.05 ± 0.12
TTTTTGGACG | 0.969 ± 0.081
ACACAGTACT | 1.37 ± 0.09
TGGGAGGTTG | 0.994 ± 0.04
GTATGTGTCG | 1.01 ± 0.017
TTGTGTTGGG | 1.01 ± 0.034
TGATGGGTTG | 1 ± 0.03
TAGTTGTGGT | 0.99 ± 0.034
TTGGAGCATG | 1.28 ± 0.049
AGCGCCGGGG | 1.03 ± 0.015
CGGGGGAAGT | 0.981 ± 0.068
GGTTAACGGA | 1 ± 0.016
TTAACATTAC | 1.38 ± 0.11
CCTTGTTTAA | 1.01 ± 0.086
AGGGGGAGCA | 0.9697 ± 0.0045
CAGCCTGCGG | 1.01 ± 0.029
ATGGTCGTCG | 0.9939 ± 0.0035
GTTTGCTTAG | 0.986 ± 0.024
GCAGTACGGG | 1.42 ± 0.26
CCAGCTGGT | 1.02 ± 0.042
AGGGCTTTCT | 0.97 ± 0.023
TGCAGCAGGT | 1.18 ± 0.025
TAGGGGAGCA | 1.01 ± 0.044

Sequence | switch fluorescence ratio
GTTTAAGAAA | 0.998 ± 0.027
TTGAGTGCTT | 0.987 ± 0.028
GTGTCATTTA | 0.99 ± 0.035
TTTTGGTAGG | 1.02 ± 0.02
AGACAGGGGG | 1.11 ± 0.2
TTCCTCTCGG | 1.17 ± 0.18
GATTTTCGAA | 1 ± 0.041
TAGTGAAGGC | 0.988 ± 0.013
GATTAGTGTT | 1.01 ± 0.021
ATTGTGTTAG | 1.03 ± 0.055
GGGCTGGTTC | 1.03 ± 0.017
TGCGCCGGGT | 1.12 ± 0.1
TGTGATGATG | 0.947 ± 0.036
GCTGTTCAAG | 1 ± 0.026
TTTTAGGTAC | 1.021 ± 0.0019
TAGTTGTTTA | 0.985 ± 0.046
AGACTTGTTA | 0.971 ± 0.021
TCGTTATTAA | 1 ± 0.012
TTAGTAAAAT | 1.01 ± 0.017
